Laboratory results from paper PMC9927353.

Molecular target: FleQ (Pseudomonas aeruginosa PAO1) (UniProt G3XCV0)
Experiment: EMSA

Sequence of FleQ (Pseudomonas aeruginosa PAO1) (G3XCV0 whole entry): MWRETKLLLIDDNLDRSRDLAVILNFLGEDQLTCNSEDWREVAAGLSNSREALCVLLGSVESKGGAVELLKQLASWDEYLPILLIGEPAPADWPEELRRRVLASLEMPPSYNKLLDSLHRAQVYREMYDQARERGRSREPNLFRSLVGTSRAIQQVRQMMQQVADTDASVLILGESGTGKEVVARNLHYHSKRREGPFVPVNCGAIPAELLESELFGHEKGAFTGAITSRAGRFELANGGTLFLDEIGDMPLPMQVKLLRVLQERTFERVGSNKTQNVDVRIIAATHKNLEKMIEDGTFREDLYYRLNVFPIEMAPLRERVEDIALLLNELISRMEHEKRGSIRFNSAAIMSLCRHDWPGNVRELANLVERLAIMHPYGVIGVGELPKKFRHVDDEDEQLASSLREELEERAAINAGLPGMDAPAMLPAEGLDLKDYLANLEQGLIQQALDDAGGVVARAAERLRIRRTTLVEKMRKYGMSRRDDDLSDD

GAGTTGCAGCCTTTCCTTGCCGTCAGCCATGGCGCACCTCCGGACGAGGGTACGCGCAGGGGTCTTCGAGATGGCTCATTATTCTTGTCTCCACTCTGTCAGAGGCCGTGTCTTGCGCACGGATGAGCGGATTATTGGCGGCGGATGTAAGACGCCGTTGAACGCGCGGATCGAAGATGTAAAAAGCTGTAAGGAAGTTGTTCGCCGCG (double strand) [lysP promoter (4981)]
binding: binds
